Experimental data published in PMC7660908.

Key:
[1] = molecular target: AausFP1 (His-tag cleaved, crystallised) (Aequorea cf. australis); experiment: crystal structure; AausFP1 at 40 mg/ml, hanging drop, 0.7-1.3 M trisodium citrate, 0.2 M sodium chloride, 0.1 M Tris pH 6.5-8.0; 4 molecules in the asymmetric unit; interfaces analysed with PISA
[2] = molecular target: AausFP2 (His-tag removed with proteinase K, crystallised) (Aequorea cf. australis); experiment: crystal structure; AausFP2 at 51 mg/ml, hanging drop, 14%-24% PEG 3350 trisodium citrate, 0.2 M sodium chloride, 0.1 M HEPES pH 7.3-8.2; 1 molecule in the asymmetric unit; interfaces analysed with PISA

| Substance | stoichiometry N [1] | stoichiometry N [2] |
| --- | --- | --- |
| AausFP1 (His-tag cleaved, crystallised) (natural protein) | 2 |  |
| AausFP2 (His-tag removed with proteinase K, crystallised) (natural protein) |  | 2 |
